# Measurements from IntAct's records for PubMed 23681068.
# B1: RNA-binding protein FUS (Homo sapiens), P35637 (parent)
# chain: MASNDYTQQATQSYGAYPTQPGQGYSQQSSQPYGQQSYSGYSQSTDTSGYGQSSYSSYGQSQNTGYGTQSTPQGYGSTGGYGSSQSSQSSYGQQSSYPGYGQQPAPSSTSGSYGSSSQSSSYGQPQSGSYSQQPSYGGQQQSYGQQQSYNPPQGYGQQNQYNSSSGGGGGGGGGGNYGQDQSSMSSGGGSGGGYGNQDQSGGGGSGGYGQQDRGGRGRGGSGGGGGGGGGGYNRSSGGYEPRGRGGGRGGRGGMGGSDRGGFNKFGGPRDQGSRHDSEQDNSDNNTIFVQGLGENVTIESVADYFKQIGIIKTNKKTGQPMINLYTDRETGKLKGEATVSFDDPPSAKAAIDWFDGKEFSGNPIKVSFATRRADFNRGGGNGRGGRGRGGPMGRGGYGGGGSGGGGRGGFPSGGGGGGGQQRAGDWKCPNPTCENMNFSWRNECNQCKAPKPDGPGGGPGGSHMGGNYGDDRRGGRGGYDRGGYRGRGGDRGGFRGGRGGGDRGGFGPGKMDSRGEHRQDRRERPY
# Variants of: B1
# Settings: with smn_mouse Smn1, P97801
# Chain of smn_mouse Smn1, P97801 (P97801 whole entry): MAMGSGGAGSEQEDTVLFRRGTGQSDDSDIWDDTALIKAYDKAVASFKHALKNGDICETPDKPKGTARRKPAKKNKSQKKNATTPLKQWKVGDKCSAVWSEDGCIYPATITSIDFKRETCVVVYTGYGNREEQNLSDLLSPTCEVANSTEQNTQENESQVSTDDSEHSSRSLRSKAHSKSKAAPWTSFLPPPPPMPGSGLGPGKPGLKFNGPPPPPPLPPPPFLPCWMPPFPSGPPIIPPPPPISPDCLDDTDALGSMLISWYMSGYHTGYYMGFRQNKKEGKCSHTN
row,Variant,effect of a mutation on the interaction
1,MASNDYTQQATQSYGAYPTQPGQGYSQQSSQPYGQQSYSGYSQSTDTSGYGQSSYSSYGQSQNTGYGTQSTPQGYGSTGGYGSSQSSQSSYGQQSSYPGYGQQPAPSSTSGSYGSSSQSSSYGQPQSGSYSQQPSYGGQQQSYGQQQSYNPPQGYGQQNQYNSSSGGGGGGGGGGNYGQDQSSMSSGGGSGGGYGNQDQSGGGGSGGYGQQDRGGRGRGGSGGGGGGGGGGYNRSSGGYEPRGRGGGRGGRGGMGGSDRGGFNKFGGPRDQGSRHDSEQDNSDNNTIFVQGLGENVTIESVADYFKQIGIIKTNKKTGQPMINLYTDRETGKLKGEATVSFDDPPSAKAAIDWFDGKEFSGNPIKVSFATRRADFNRGGGNGRGGRGRGGPMGRGGYGGGGSGGGGRGGFPSGGGGGGGQQRAGDWKCPNPTCENMNFSWRNECNQCKAPKPDGPGGGPGGSHMGGNYGDDRRGGRGGYDRGGYRGRGGDRGGFRGGRGGGDRGGFGPGKMDSRGEHRQDCRERPY [R521C],increasing interaction strength
2,MASNDYTQQATQSYGAYPTQPGQGYSQQSSQPYGQQSYSGYSQSTDTSGYGQSSYSSYGQSQNTGYGTQSTPQGYGSTGGYGSSQSSQSSYGQQSSYPGYGQQPAPSSTSGSYGSSSQSSSYGQPQSGSYSQQPSYGGQQQSYGQQQSYNPPQGYGQQNQYNSSSGGGGGGGGGGNYGQDQSSMSSGGGSGGGYGNQDQSGGGGSGGYGQQDRGGRGRGGSGGGGGGGGGGYNRSSGGYEPRGRGGGRGGRGGMGGSDRGGFNKFGGPRDQGSRHDSEQDNSDNNTIFVQGLGENVTIESVADYFKQIGIIKTNKKTGQPMINLYTDRETGKLKGEATVSFDDPPSAKAAIDWFDGKEFSGNPIKVSFATRRADFNRGGGNGRGGRGRGGPMGRGGYGGGGSGGGGRGGFPSGGGGGGGQQRAGDWKCPNPTCENMNFSWRNECNQCKAPKPDGPGGGPGGSHMGGNYGDDRRGGRGGYDRGGYRGRGGDRGGFRGGRGGGDRGGFGPGKMDSRGEHRQDHRERPY [R521H],increasing interaction strength
3,MASNDYTQQATQSYGAYPTQPGQGYSQQSSQPYGQQSYSGYSQSTDTSGYGQSSYSSYGQSQNTGYGTQSTPQGYGSTGGYGSSQSSQSSYGQQSSYPGYGQQPAPSSTSGSYGSSSQSSSYGQPQSGSYSQQPSYGGQQQSYGQQQSYNPPQGYGQQNQYNSSSGGGGGGGGGGNYGQDQSSMSSGGGSGGGYGNQDQSGGGGSGGYGQQDRGGRGRGGSGGGGGGGGGGYNRSSGGYEPRGRGGGRGGRGGMGGSDRGGFNKFGGPRDQGSRHDSEQDNSDNNTIFVQGLGENVTIESVADYFKQIGIIKTNKKTGQPMINLYTDRETGKLKGEATVSFDDPPSAKAAIDWFDGKEFSGNPIKVSFATRRADFNRGGGNGRGGRGRGGPMGRGGYGGGGSGGGGRGGFPSGGGGGGGQQRAGDWKCPNPTCENMNFSWRNECNQCKAPKPDGPGGGPGGSHMGGNYGDDRRGGRGGYDRGGYRGRGGDRGGFRGGRGGGDRGGFGPGKMDSRGEHRQDRRERLY [P525L],increasing interaction strength

# Variants of: B1
# Settings: with smn_mouse Smn1, P97801
# Remark: another data set of the same source
row,Variant,effect of a mutation on the interaction
1,MASNDYTQQATQSYGAYPTQPGQGYSQQSSQPYGQQSYSGYSQSTDTSGYGQSSYSSYGQSQNTGYGTQSTPQGYGSTGGYGSSQSSQSSYGQQSSYPGYGQQPAPSSTSGSYGSSSQSSSYGQPQSGSYSQQPSYGGQQQSYGQQQSYNPPQGYGQQNQYNSSSGGGGGGGGGGNYGQDQSSMSSGGGSGGGYGNQDQSGGGGSGGYGQQDRGGRGRGGSGGGGGGGGGGYNRSSGGYEPRGRGGGRGGRGGMGGSDRGGFNKFGGPRDQGSRHDSEQDNSDNNTIFVQGLGENVTIESVADYFKQIGIIKTNKKTGQPMINLYTDRETGKLKGEATVSFDDPPSAKAAIDWFDGKEFSGNPIKVSFATRRADFNRGGGNGRGGRGRGGPMGRGGYGGGGSGGGGRGGFPSGGGGGGGQQRAGDWKCPNPTCENMNFSWRNECNQCKAPKPDGPGGGPGGSHMGGNYGDDRRGGRGGYDRGGYRGRGGDRGGFRGGRGGGDRGGFGPGKMDSRGEHRQDCRERPY [R521C],with no effect
